Data reported in article PMC6286779, “HLA-A2-Restricted Epitopes Identified from MTA1 Could Elicit Antigen-Specific Cytotoxic T Lymphocyte Response” (Journal of Immunology Research, 2018).

What was measured:
[1] = system: HLA-A2.1/K^b transgenic mice; test: Serum IFN-γ ELISA after immunization; type: in vivo; settings: mice immunized with 100 μg/ml MTA1(1–283) in IFA days 0 and 7; serum day 14; vs PBS, P < 0.001; n = 5
[2] = system: PBMCs from HLA-A*02+ healthy donors; test: IFN-γ ELISPOT of CTLs induced in vitro; type: cell-based, human; settings: PBMCs stimulated with MTA1(1–283) once a week for 21 days; stimulators T2 cells with peptide pool 50 μg/ml; n = 4
Procedure: (§1) CTL induction in vitro was conducted according to the procedures previously described. Briefly, PBMCs from eight HLA-A^∗02^+ healthy donors were isolated using Ficoll-Paque density gradient centrifugation and resuspended in RPMI 1640 medium supplemented with 10% FBS. Then, PBMCs were stimulated three times (once a week) with the indicated peptides (10 μg/ml) or protein MTA1(1–283) (at final concentrations of 0, 1, 10, 30, and 50 μg/ml) for 21 days. Human recombinant cytokine interleukin-2 (IL-2) (50 U/ml) was added on day 3 and 1 day after each stimulation. The cytotoxic assay (lactate dehydrogenase (LDH) assay) and IFN-γ secretion enzyme-linked immunospot (ELISPOT) assay were performed on day 21.
The ELISPOT assay was performed using a commercial kit (Dakewe, China) according to the procedures previously described. Briefly, T2 cells incubated with/without candidate peptide (50 μg/ml) were used as the stimulating cells, effector cells (1 × 10^5) and stimulator cells (peptide-pulsed T2 cells or T2 cells only, 1 × 10^5) were seeded into the 96-well plate precoated with an anti-human (or anti-mouse) IFN-γ antibody. After incubation at 37°C for 18 h, cells were removed, and plates were processed for analysis as instructed. The spot number was determined automatically using a computer-assisted spot analyzer (Dakewe, China).

[3] = system: HLA-A2.1/K^b transgenic mice; test: IFN-γ intracellular cytokine staining, CD4+ T cells; type: in vivo; settings: mice immunized with MTA1(1–283); CD3+CD8− subset
Procedure: (§2) To test the effects of protein, each HLA-A2.1/K^b transgenic mouse was injected subcutaneously at the base of the tail with 100 μg MTA1(1–283) or the same volume of PBS emulsified in IFA twice on days 0 and 7. On day 14, spleen lymphocytes were harvested and stimulated by peptide pool (10 μg/ml) in vitro for another 6 days. LDH, IFN-γ ELISPOT, and IFN-γ intracellular cytokine staining assays were performed on day 6 after the in vitro stimulation. E/T ratios used in the LDH assay were 12.5 : 1, 25 : 1, and 50 : 1.
(§3) To test the protein MTA1(1–283) stimulation of CTL response in vivo, IFN-γ release of induced CTLs was determined by the intracellular cytokine staining assay according to our former study. In brief, on day 14, spleen lymphocytes were harvested and stimulated by peptide pool (10 μg/ml) in vitro for another 6 days. Then, restimulated splenocytes were incubated with peptide-loaded T2 cells or T2 cells only for 3 h. Subsequently, protein transport inhibitor cocktail was added to splenocytes for another 4 h. Then, those cells were stained with Anti-mouse CD3 PerCP-eFluor® 710 (clone: 17A2, eBioscience) and Anti-mouse CD8α PE (clone: 53–6.7, eBioscience) at 4°C for 30 min. […] Those cells were washed twice by permeabilization buffer and analyzed by flow cytometry.

[4] = system: SW620 cells (HLA-A2+, MTA1+); test: LDH cytotoxicity assay, CTLs induced in HLA-A2.1/Kb transgenic mice; type: in vivo, human; settings: mice immunized with MTA1(1–283) days 0 and 7; E/T 50 : 1 and 25 : 1; significant vs PBS
Procedure: In vivo induction of peptide-specific CTLs was performed as previously described. Briefly, peptide (100 μg) and the IA^b-restricted HBV-core128 T helper epitope (140 μg) emulsified in incomplete Freund's adjuvant (IFA) were used to subcutaneously immunize at the base of the tail of HLA-A2.1/K^b transgenic mice three times on days 0, 5, and 10. On day 11, all mice were sacrificed through cervical dislocation. Spleen lymphocytes were isolated and restimulated once with 10 μg/ml peptide and 10 U/ml mIL-2 in vitro for an additional 6 days. LDH and IFN-γ ELISPOT assays were performed on day 6 after in vitro stimulation. […]
as §2
(§4) Cytotoxic activity of induced T cells was tested based on the quantitation of LDH release using the nonradioactive cytotoxicity assay kit (Promega, USA) at the gradient E/T ratio [29, 31]. Target cells which expressed different levels of MTA1 or peptide-pulsed T2 cells were used as target cells. The anti-human HLA-A2 antibody (BB7.2) was added 30 min before adding effector cells to determine the HLA restriction. Target cells (5 × 10^3/well) were cocultured with the effector cells at 37°C for 4 h. The percentage of specific lysis of the target cells was determined using the equation: percentage of specific lysis = [(experimental release − effector spontaneous release − target spontaneous release)/(target maximum release − target spontaneous release)] × 100.

[5] = system: HLA-A2.1/K^b transgenic mice; test: IFN-γ intracellular cytokine staining, CD8+ T cells; type: in vivo; settings: mice immunized with MTA1(1–283); splenocytes restimulated with peptide pool; T2 cells pulsed with each peptide; vs PBS, P < 0.001
Procedure: as §2, §3

SW620 (HLA-A2+, MTA1+) = test: LDH cytotoxicity assay, CTLs induced in vitro; type: cell-based, human; settings: PBMCs induced by 50 μg/ml MTA1(1–283); E/T 50 : 1; LDH assay; n = 4
Procedure: as §1, §4

B1: MTA1(1–283): recombinant fragment of MTA1, first 283 amino acids, expressed in E. coli from pET28a, containing the predominant epitopes (protein, UniProt Q13330 1-283, looked up, fragment)
chain: MAANMYRVGDYVYFENSSSNPYLIRRIEELNKTANGNVEAKVVCFYRRRDISSTLIALADKHATLSVCYKAGPGADNGEEGEIEEEMENPEMVDLPEKLKHQLRHRELFLSRQLESLPATHIRGKCSVTLLNETESLKSYLEREDFFFYSLVYDPQQKTLLADKGEIRVGNRYQADITDLLKEGEEDGRDQSRLETQVWEAHNPLTDKQIDQFLVVARSVGTFARALDCSSSVRQPSLHMSAAAASRDITLFHAMDTLHKNIYDISKAISALVPQGGPVLCRD
IFN-γ secretion in vivo (serum IFN-γ, ELISA) [1]: secreted more IFN-γ compared with the PBS control group | IFN-γ secretion of protein-induced CTLs, ELISPOT [2]: can secrete IFN-γ | percentage of IFN-γ+ CD4+ T cells [3]: a certain percentage of IFN-γ ^+ CD4^+ T cells | lysis of SW620 tumor cells by T cells induced in vivo by protein [4]: could kill SW620 tumor cells | percentage of IFN-γ+ CD8+ T cells [5]: a higher percentage of IFN-γ ^+ CD8^+ T cells compared with the PBS group | rate of lysis of SW620 cells by protein-induced CTLs (SW620 (HLA-A2+, MTA1+)): 50.01%
